In assay [1] the target is T1, ErbB-2 expressed on transfected cells (32D derivative D2; CHO cells co-transfected with ErbB-4) (UniProt P04626 23-1255, limits assumed).
T1 construct: whole, on cells
The assay is described as follows: in vitro studies with engineered cell lines expressing all four ErbB proteins (FIGS. 3 to 5). The protocol:
(§1) The indicated derivative lines of 32D cells were tested for cell proliferation using the [3-(4,5-dimethylthiazol-2-yl)-2,5-diphenyl]tetrazolium bromide (MTT) assay. […] The MTT assay was performed 24 hours later.
(§2) The indicated derivatives of 32D cells were incubated for various time intervals in the absence of IL-3. […] For control, cells were incubated with medium conditioned by IL-3-producing cells (open triangles), or with no factor (open circles). The extent of cell proliferation was determined daily by using the colorimetric MTT assay. The data presented are the mean±S.D. of 4 determinations.

The target of assay [2] is T2, ErbB-3 expressed on transfected cells (32D derivative D3; CHO cells co-transfected with ErbB-4) (UniProt P21860 20-1342, limits assumed).
T2 construct: whole, on cells
T2 sequence (P21860 20-1342 limits assumed): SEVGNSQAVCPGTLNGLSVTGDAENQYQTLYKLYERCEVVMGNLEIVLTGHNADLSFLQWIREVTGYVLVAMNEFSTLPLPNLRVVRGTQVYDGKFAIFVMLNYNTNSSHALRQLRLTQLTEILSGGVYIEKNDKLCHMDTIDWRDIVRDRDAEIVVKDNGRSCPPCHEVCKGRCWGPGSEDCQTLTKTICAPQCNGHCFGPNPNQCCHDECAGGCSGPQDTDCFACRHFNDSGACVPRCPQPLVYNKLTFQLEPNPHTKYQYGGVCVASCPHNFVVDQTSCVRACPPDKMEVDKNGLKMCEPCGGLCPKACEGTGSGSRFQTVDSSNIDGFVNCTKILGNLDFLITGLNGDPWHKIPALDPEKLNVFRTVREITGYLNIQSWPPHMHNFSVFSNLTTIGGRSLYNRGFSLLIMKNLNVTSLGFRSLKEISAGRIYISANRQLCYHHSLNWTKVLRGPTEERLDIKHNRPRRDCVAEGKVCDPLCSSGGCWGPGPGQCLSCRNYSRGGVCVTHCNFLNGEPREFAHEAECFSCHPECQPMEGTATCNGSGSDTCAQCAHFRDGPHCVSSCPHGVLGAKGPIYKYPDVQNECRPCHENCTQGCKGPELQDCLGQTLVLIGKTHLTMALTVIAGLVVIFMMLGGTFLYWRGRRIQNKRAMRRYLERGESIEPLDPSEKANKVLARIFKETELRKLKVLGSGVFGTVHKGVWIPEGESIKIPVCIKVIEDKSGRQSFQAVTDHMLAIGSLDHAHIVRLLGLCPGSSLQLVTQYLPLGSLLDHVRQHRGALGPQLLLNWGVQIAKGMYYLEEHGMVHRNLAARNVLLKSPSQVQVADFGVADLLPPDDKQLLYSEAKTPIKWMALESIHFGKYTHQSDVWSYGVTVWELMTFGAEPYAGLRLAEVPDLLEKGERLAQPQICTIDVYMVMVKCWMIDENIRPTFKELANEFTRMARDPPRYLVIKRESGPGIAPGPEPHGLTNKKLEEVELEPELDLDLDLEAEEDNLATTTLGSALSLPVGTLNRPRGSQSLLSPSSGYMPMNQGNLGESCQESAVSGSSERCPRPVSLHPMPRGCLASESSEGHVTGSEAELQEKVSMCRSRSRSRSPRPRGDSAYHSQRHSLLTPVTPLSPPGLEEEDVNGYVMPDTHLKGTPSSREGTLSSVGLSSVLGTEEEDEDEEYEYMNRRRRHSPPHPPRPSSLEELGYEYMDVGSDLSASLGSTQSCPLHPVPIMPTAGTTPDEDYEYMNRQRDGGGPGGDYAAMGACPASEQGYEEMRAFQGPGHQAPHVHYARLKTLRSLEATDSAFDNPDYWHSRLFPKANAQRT
Described as above. As to the method:
as §1, §2

The target of assay [3] is T3, ErbB-1 expressed on transfected cells (32D derivative D1; CHO cells co-transfected with ErbB-4) (UniProt P00533 25-1210, limits assumed).
T3 construct: whole, on cells; also called Epidermal Growth Factor Receptor
The assay is described as above. The protocol:
as §1, §2

Assay [4] addresses T4, ErbB-4 expressed on transfected cells (CHO cells; 32D derivatives D4 and D24) (UniProt Q15303 26-1308, limits assumed).
T4 construct: whole, on cells; also called surface-expressed ErbB-4
The assay is described as follows: displacement of radiolabeled NRG-1β (5 ng/ml) from CHO cells expressing ErbB-4 by unlabeled ligand, 2 hours at 4 C. The source says:
(§3) Each data point represents the mean and range (bars) of two determinations.
(§4) To quantify the interaction, a ligand displacement analysis on ErbB-4-expressing CHO cells was undertaken.

Assay [5] concerns the target T4, ErbB-4 expressed on transfected cells …. The assay is described as follows: displacement of radiolabeled NRG-1β (5 ng/ml) from CHO cells expressing ErbB-4 by unlabeled ligand; reference unlabeled NRG-1.
From the text: as §3, §4

Ends that are not written are not given here.

From patent publication US20040121326A1 (YEDA RESEARCH AND DEVELOPMENT, published 2004) come the findings set out here.

T4 sequence (Q15303 26-1308 limits assumed): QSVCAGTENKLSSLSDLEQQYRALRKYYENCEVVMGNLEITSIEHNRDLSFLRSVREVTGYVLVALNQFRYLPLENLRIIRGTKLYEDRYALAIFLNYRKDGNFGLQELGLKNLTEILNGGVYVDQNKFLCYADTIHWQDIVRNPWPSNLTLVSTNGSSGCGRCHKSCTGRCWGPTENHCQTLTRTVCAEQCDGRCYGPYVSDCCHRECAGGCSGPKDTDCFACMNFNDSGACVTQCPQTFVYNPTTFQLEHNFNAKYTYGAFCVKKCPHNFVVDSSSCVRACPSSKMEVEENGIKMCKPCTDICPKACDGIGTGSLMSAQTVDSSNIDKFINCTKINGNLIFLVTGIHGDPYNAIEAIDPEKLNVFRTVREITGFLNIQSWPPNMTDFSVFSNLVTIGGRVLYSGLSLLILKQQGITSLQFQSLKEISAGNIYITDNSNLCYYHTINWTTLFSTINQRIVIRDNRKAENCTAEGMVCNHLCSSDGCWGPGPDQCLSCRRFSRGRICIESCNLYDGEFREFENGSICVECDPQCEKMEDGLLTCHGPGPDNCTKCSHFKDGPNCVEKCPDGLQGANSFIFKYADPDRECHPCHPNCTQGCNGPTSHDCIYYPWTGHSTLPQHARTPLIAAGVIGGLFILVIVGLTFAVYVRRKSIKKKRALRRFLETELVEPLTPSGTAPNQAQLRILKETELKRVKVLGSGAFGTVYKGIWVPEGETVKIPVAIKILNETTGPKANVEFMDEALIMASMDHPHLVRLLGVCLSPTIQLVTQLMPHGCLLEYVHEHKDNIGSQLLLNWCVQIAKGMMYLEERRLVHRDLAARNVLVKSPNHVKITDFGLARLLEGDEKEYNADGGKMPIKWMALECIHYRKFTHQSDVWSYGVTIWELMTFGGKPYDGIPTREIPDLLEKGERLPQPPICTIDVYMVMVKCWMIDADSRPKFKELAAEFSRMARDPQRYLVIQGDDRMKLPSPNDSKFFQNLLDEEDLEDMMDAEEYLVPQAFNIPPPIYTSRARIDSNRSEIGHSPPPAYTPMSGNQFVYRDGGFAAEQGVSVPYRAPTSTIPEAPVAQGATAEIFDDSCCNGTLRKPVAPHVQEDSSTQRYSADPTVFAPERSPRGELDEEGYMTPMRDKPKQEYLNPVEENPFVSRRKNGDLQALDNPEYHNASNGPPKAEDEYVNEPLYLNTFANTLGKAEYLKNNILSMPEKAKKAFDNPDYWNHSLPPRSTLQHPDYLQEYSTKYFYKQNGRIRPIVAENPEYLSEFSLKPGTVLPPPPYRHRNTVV

B1: synthetic refolded mouse EGF-like domain of NRG-4 (residues 4 to 50, SEQ ID NO:2) (ligand)
peptide: DHEQPCGPRHRSFCLNGGICYVIPTIPSPFCRCIENYTGARCEEVFL
modifications: disulfide (positions not given here); also: three disulfide bonds, pairing not given here
notes: Chemically synthesised, folded and fully oxidized (three predicted disulfide bonds); also called Neuregulin-4; the novel synthetic peptide
With B1, the binding result in assay [1], in assay [2] and in assay [3] was “no binding” in each case. For the same molecule, the dissociation constant Kd in assay [4] is around 20 nM. In addition, the “fold lower binding affinity than NRG-1” value in assay [5] is around 8 fold.

The Kd is the equilibrium constant for the complex coming apart. The low end stands for higher affinity, the high end for lower affinity.
